Measurements as given in patent US20220119522A1 (DENALI THERAPEUTICS, published 2022).
Positions count from the first letter of the chain named. No end group written: not given here.

T1: human TREM2 on the cell surface (human, UniProt Q9NZC2 19-230)
T1 sequence: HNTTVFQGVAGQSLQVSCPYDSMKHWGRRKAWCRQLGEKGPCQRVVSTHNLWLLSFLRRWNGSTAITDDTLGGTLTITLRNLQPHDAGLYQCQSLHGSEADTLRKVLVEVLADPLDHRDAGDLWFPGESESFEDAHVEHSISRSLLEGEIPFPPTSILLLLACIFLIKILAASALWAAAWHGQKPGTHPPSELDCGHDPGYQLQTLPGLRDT

T2: human TREM2 full length stalk region peptide (aa 129-172) (human, biotinylated (site not stated))
T2 construct: also called Human TREM2 peptide (aa 129-172); full-length TREM2 stalk peptide
T2 peptide: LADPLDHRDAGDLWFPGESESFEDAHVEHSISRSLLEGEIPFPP

T3: human TREM2 truncated stalk peptide (aa 149-163) (human, also: biotinylated (site not given here))
T3 construct: also called Human TREM2 peptide (aa 149-163); truncated stalk peptide containing the ADAM10/17 cleavage site
T3 peptide: SFEDAHVEHSISRSL

T4: mouse TREM2 full length stalk region peptide (aa 131-169) (mouse, UniProt Q99NH8 131-169, biotinylated (site not stated))
T4 peptide (looked up): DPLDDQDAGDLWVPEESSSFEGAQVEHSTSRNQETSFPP

T5: His-tagged human TREM2 ECD (human, UniProt Q9NZC2 19-172)
T5 construct: Biacore and HDX say only recombinant human TREM2 (ECD); also called recombinant human TREM2; hTREM2
T5 sequence: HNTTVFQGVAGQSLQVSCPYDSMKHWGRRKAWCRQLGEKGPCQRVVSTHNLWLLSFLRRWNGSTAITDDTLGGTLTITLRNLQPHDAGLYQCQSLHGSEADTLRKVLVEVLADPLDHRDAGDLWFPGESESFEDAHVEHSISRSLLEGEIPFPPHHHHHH

B1: CL0020096 (antibody, V domains shown)
VH: QIQLVQSGPELRKPGETVKISCKASGYTFTTYGMSWVKQAPGKGLKWMGWINTYSGLPRHSDDFKGRFAFSLETSASTAYLQINNLKNEDTATYFCAREVYYGSRKTAWFAYWGQGTLVTVSA
VL: DLVMSQSPSSLAVSVGERVTMSCKSSQSLLYSNDQKNYLAWYQQIPGQSPKLLIYWASTRESGVPDRFTGSGSGTDFTLTISSVKAEDLAVYFCQQYYSYPPTFGAGTKLELK
notes: also called Clone CL0020096
B2: CL0020210 (antibody, V domains shown)
VH: B1 VH
VL: B1 VL with V19I, S22T, I54L, S99N
notes: also called Clone CL0020210; CL020210
B3: CL0020113 (antibody, V domains shown)
VH: QIQLVQSGPELKKPGESLKISCKASGYTFTDYAMQWVKQAPGKGLQYMGWINTQTGKPTYADDFKERFVFSLETSASTAYLKINNLKNDDMATYLCARSYGGEYNWIAYWGQGTLVTVSS
VL: DIVMTQTPSSQAVSAGEKVTMNCKSSQSLLYNENKKNYLAWYQQKPGQSPKLLIYWASTRESGVPDRFIGSGSGTDFTLTISSVQAEDLAVYYCQQSYNFPPTFGGGTKLELK
notes: also called Clone CL0020113
B4: CL0020205 (antibody, V domains shown)
VH: EVQLQQSGPVLVKPGASVKMSCKASGYTFTDYYVHWVKQSHGKSLEWIGLINPYTGTTSYNQRFRVKATLTVDKSSSTAYMEVNSLTSEDSAVYYCARSRVYYGSSLFAFWGQGTLVTVSA
VL: DIVMTQSPSSLSVSAGEKVTMSCKSSQSLLNSGNQKNYLAWYQQKPGQPPKLLIYGASTRESGVPDRFTGSGSGTDFTLTISSVQAEDLAVYYCQNDHSYPYTFGGGTKLEIK
notes: also called Clone CL0020205
B5: CL0020195 (antibody, V domains shown)
VH: EVQLVESGGGLVQPGRSMMLSCSASGFTFSNYHMAWVRQAPTTGLEWVASITTGSGNTYYRHSVKGRFTISRDNAKSTLYLQMDSLRSEDTASYYCARRWYGGYEGYYFDYWGQGVMVTVSS
VL: DIQMTQSPSLLSASVGDRVTLSCKAGQNVNNYLAWYQQKLGEAPKLLIYNANILQTGFPSRFSGTGSGTDFTLTISSLQPEDVATYFCQQYNSWTTFGGGTKLELK
notes: also called Clone CL0020195
B6: CL0020120 (antibody, V domains shown)
VH: EVQLQQSGPELVRTGASVKISCRASSYSFTDNYIHWVKQTHGRSLEWIGYISGYTGATSYNQKFKGKATFTVDTSSSTAYMQFNSLTSEDSAVYYCARSTMIAPYGMDYWGQGTSVTVSS
VL: DIVMTQSHKFMSTSVGDRVNITCKASQDVVTAVAWYQQKPGQSPKLLIYWASTRHTGVPDRFTGSGSGTDFTLTISNVQSEDLADYFCQQYSRYPLTFGAGTKLELK
notes: also called Clone CL0020120
B7: CL0020127 (antibody, V domains shown)
VH: EVQLQQSGPVLVKPGASVKMSCKASGYKFTDYYMNWVKQSHGKSLEWIGTINPYSGGISYNQKFKGKATLTVDKSSSTAYMELNSLTSEASAVYYCTRRNWDGRYAMDYWGQGTSVTVSS
VL: B6 VL with N20S, V30S, D85E, R93S, L96F, A100G, L106I
notes: also called Clone CL0020127
B8: CL0020206 (antibody, V domains shown)
VH: B7 VH with K28T, T50I, T69I
VL: B6 VL with N20S, C23Y, V30G, T31S, A51T, R93S, L96F, A100G, L106I
notes: also called Clone CL0020206
B9: CL0020141 (antibody, V domains shown)
VH: EVTLVESGGGLVQPGGSLRLSCATSGFTFTDYYMSWVRQPPGKALEWLGFIRDKANGYTTDYSASVKGRFTISRDNSQNILYLQMNTLRAEDSATYYCSRLLRAQGFAYWGQGTLVTVSA
VL: DIVMSQSPSSLGVSIGEKVIMSCTSGQSLLYSNNQKNYLAWYQQKPGQSPKLLIYWASTRESGVPDRFTGSGSGTDFTLTINSVKAEDLAVYYCQQYYRNPFTFGSGTKLEIK
notes: also called Clone CL0020141

Target: T1, human TREM2 on the cell surface
Experiment: cell-based or functional assay

Row | NFAT EC50 (nM), plate coated mAb | pSyk activation (human macrophages) EC50 (nM) | Binder | Survival EC50 (nM), plate coated mAb, human macrophages
1 | 16.2 nM | 30.9 nM | B1 | 1.8 nM
2 | 11.7 nM | 37.4 nM | B2 | –
3 | 185 nM | 24.8 nM | B3 | 24.8 nM
4 | 67.7 nM | 14.3 nM | B4 | 5.7 nM
5 | 98.3 nM | 12 nM | B5 | –
6 | 195 nM | 24.2 nM | B6 | 17.8 nM
7 | 20.5 nM | 11.9 nM | B7 | –
8 | 69.9 nM | 20.7 nM | B8 | –
9 | 25.5 nM | 5.9 nM | B9 | 2 nM

Target: T1, human TREM2 on the cell surface
Experiment: cell binding, human macrophages, dose titration

Row | EC50 | Binder
10 | 14 nM | B1
11 | 0.9 nM | B2
12 | 2.1 nM | B3
13 | 2.1 nM | B4
14 | 1.3 nM | B5
15 | 1.6 nM | B6
16 | 11 nM | B7
17 | 4.8 nM | B8
18 | 0.6 nM | B9

Target: T2, human TREM2 full length stalk region …
Experiment: ELISA on biotinylated peptide captured by streptavidin; A450 normalised to isotype control
Method: (§1) TREM2 antibodies were evaluated for binding to human and mouse TREM2 stalk region peptides. […] Antibody binding to TREM2 stalk peptides was detected using standard sandwich ELISA. Briefly, a 96-well half-area ELISA plate was coated with streptavidin overnight at 4° C. The following day, biotinylated TREM2 stalk peptides diluted in 1% BSA/PBS were added to the plate and incubated for 1 hour. Antibodies diluted in 1% BSA/PBS were then added and incubated for 1 hour. Antibodies bound to peptide were detected with anti-human kappa-HRP secondary antibody (Bethyl Laboratories, Inc.) diluted in 1% BSA/PBS. Plates were assayed by reaction with a detection reagent (One-step TMB Ultra, Thermo) and measurement of absorbance at 450 nm (A450) by standard spectrophotometry instrumentation (BioTek®). Data are shown as normalized values (fold over background where background=isotype control).

Row | fold over background (A450) | Binder
19 | 45 fold | B1
20 | 50 fold | B2
21 | 47 fold | B3
22 | 1.3 fold | B4
23 | 1.3 fold | B5
24 | 1.2 fold | B6
25 | 1.4 fold | B7
26 | 1.8 fold | B8
27 | 45 fold | B9

Target: T3, human TREM2 truncated stalk peptide (aa …)
Experiment: as above
Method: as §1

Row | fold over background (A450) | Binder
28 | 1.5 fold | B2
29 | 1.4 fold | B3
30 | 1.2 fold | B4
31 | 1.1 fold | B5
32 | 1.2 fold | B6
33 | 1.2 fold | B7
34 | 1.6 fold | B8

Target: T4, mouse TREM2 full length stalk region …
Experiment: as above
Method: as §1

Row | fold over background (A450) | Binder
35 | 45 fold | B1
36 | 25 fold | B2
37 | 1.1 fold | B4
38 | 1.1 fold | B5
39 | 1.2 fold | B6
40 | 1.3 fold | B7
41 | 1.6 fold | B8

Target: T5, His-tagged human TREM2 ECD
Experiment: SPR (Biacore), antibody captured via anti-human Fab, recombinant TREM2 ECD injected, 1:1 fit
Method: Surface plasmon resonance (Biacore™ 8K instrument) was used to measure anti-TREM2 antibody affinities for human and cynomolgus TREM2 ECD. Anti-TREM2 antibodies were captured using Human Fab Capture Kit (GE Healthcare Life Sciences, Catalog No. 28958325) on a Biacore Series S CM5 sensor chip (GE Healthcare Life Sciences, Catalog No. 29149604). Serial 3-fold dilutions of recombinant human or cynomolgus TREM2 were injected at a flow rate of 30 μL/min. Antibody binding was monitored for 300 seconds, followed by monitoring of antibody dissociation for 600+seconds in HBS-EP+ running buffer (GE Healthcare Life Sciences, Catalog No. BR100669). The binding response was corrected by subtracting the RU value from a blank flow cell. A 1:1 Languir model of simultaneous fitting of kₒₙ and koff was used for kinetics analysis.

Row | Kd | Binder
42 | 5.54 nM | B1
43 | 6.27 nM | B2
44 | 7.81 nM | B3
45 | 1.52 nM | B4
46 | 25.7 nM | B5
47 | 4.04 nM | B6
48 | 3.37 nM | B7
49 | 1.82 nM | B8
50 | 4.6 nM | B9
